This assay deals with T1, myc-tagged APP-AICD(C99) (UniProt P05067 672-770).
T1 construct: domain: APP-AICD(C99); also called APP-AID(C99); not shown: myc tag
Nature of the assay: co-IP from 293T lysate: anti-myc IP, anti-HA Western blot. A general note: In western blotting, separated proteins are transferred to a membrane and probed.

B1: HA-168 deletion mutant 118-264AA (other)
chain: GHPPTALESVMLGVGSRSVAGVCMSPITVIKTRYESGKYGYESIYAALRSIYHSEGHRGLFSGLTATLLRDAPFSGIYLMFYNQTKNIVPHDQVDATLIPITNFSCGIFAGILASLVTQPAGVIKTHMQLYPLKFQWIGQAVTLIFK
notes: not shown: HA tag
In the case of B1, the binding result is “binds”.
